The values below come from paper PMC12808100, “The non-catalytic DNA polymerase ε subunit is an NPF motif recognition protein” (Nature Communications, 2025).

B1: endogenous DONSON: endogenous DONSON protein in Jurkat extract (protein)
chain: MALSVPGYSPGFRKPPEVVRLRRKRARSRGAAASPPRELTEPAARRAALVAGLPLRPFPAAGGRGGGSGGGPAAARRNPFARLDNRPRVAAEPPDGPAREQPEAPVPFLDSNQENDLLWEEKFPERTTVTELPQTSHVSFSEPDIPSSKSTELPVDWSIKTRLLFTSSQPFTWADHLKAQEEAQGLVQHCRATEVTLPKSIQDPKLSSELRCTFQQSLIYWLHPALSWLPLFPRIGADRKMAGKTSPWSNDATLQHVLMSDWSVSFTSLYNLLKTKLCPYFYVCTYQFTVLFRAAGLAGSDLITALISPTTRGLREAMRNEGIEFSLPLIKESGHKKETASGTSLGYGEEQAISDEDEEESFSWLEEMGVQDKIKKPDILSIKLRKEKHEVQMDHRPESVVLVKGINTFTLLNFLINSKSLVATSGPQAGLPPTLLSPVAFRGATMQMLKARSVNVKTQALSGYRDQFSLEITGPIMPHSLHSLTMLLKSSQSGSFSAVLYPHEPTAVFNICLQMDKVLDMEVVHKELTNCGLHPNTLEQLSQIPLLGKSSLRNVVLRDYIYNWRS
B2: LMO4 (protein, UniProt P61968 1-165, looked up)
LIM domain transcription …: MVNPGSSSQPPPVTAGSLSWKRCAGCGGKIADRFLLYAMDSYWHSRCLKCSCCQAQLGDIGTSCYTKSGMILCRNDYIRLFGNSGACSACGQSIPASELVMRAQGNVYHLKCFTCSTCRNRLVPGDRFHYINGSLFCEHDRPTALINGHLNSLQSNPLLPDQKVC
B3: CAPN6 (protein, UniProt Q9Y6Q1 1-641, looked up)
Calpain-6: MGPPLKLFKNQKYQELKQECIKDSRLFCDPTFLPENDSLFYNRLLPGKVVWKRPQDICDDPHLIVGNISNHQLTQGRLGHKPMVSAFSCLAVQESHWTKTIPNHKEQEWDPQKTEKYAGIFHFRFWHFGEWTEVVIDDLLPTINGDLVFSFSTSMNEFWNALLEKAYAKLLGCYEALDGLTITDIIVDFTGTLAETVDMQKGRYTELVEEKYKLFGELYKTFTKGGLICCSIESPNQEEQEVETDWGLLKGHTYTMTDIRKIRLGERLVEVFSAEKVYMVRLRNPLGRQEWSGPWSEISEEWQQLTASDRKNLGLVMSDDGEFWMSLEDFCRNFHKLNVCRNVNNPIFGRKELESVLGCWTVDDDPLMNRSGGCYNNRDTFLQNPQYIFTVPEDGHKVIMSLQQKDLRTYRRMGRPDNYIIGFELFKVEMNRKFRLHHLYIQERAGTSTYIDTRTVFLSKYLKKGNYVLVPTMFQHGRTSEFLLRIFSEVPVQLRELTLDMPKMSCWNLARGYPKVVTQITVHSAEDLEKKYANETVNPYLVIKCGKEEVRSPVQKNTVHAIFDTQAIFYRRTTDIPIIVQVWNSRKFCDQFLGQVTLDADPSDCRDLKSLYLRKKGGPTAKVKQGHISFKVISSDDLTEL
B4: LDB1 (protein, UniProt Q86U70 2-411, looked up)
LIM domain-binding protein 1: SVGCACPGCSSKSFKLYSPKEPPNGNAFPPFHPGTMLDRDVGPTPMYPPTYLEPGIGRHTPYGNQTDYRIFELNKRLQNWTEECDNLWWDAFTTEFFEDDAMLTITFCLEDGPKRYTIGRTLIPRYFRSIFEGGATELYYVLKHPKEAFHSNFVSLDCDQGSMVTQHGKPMFTQVCVEGRLYLEFMFDDMMRIKTWHFSIRQHRELIPRSILAMHAQDPQMLDQLSKNITRCGLSNSTLNYLRLCVILEPMQELMSRHKTYSLSPRDCLKTCLFQKWQRMVAPPAEPTRQQPSKRRKRKMSGGSTMSSGGGNTNNSNSKKKSPASTFALSSQVPDVMVVGEPTLMGGEFGDEDERLITRLENTQFDAANGIDDEDSFNNSPALGANSPWNSKPPSSQESKSENPTSQASQ
B5: GLB1 (protein, UniProt P16278 29-677, looked up)
Beta-galactosidase: QRMFEIDYSRDSFLKDGQPFRYISGSIHYSRVPRFYWKDRLLKMKMAGLNAIQTYVPWNFHEPWPGQYQFSEDHDVEYFLRLAHELGLLVILRPGPYICAEWEMGGLPAWLLEKESILLRSSDPDYLAAVDKWLGVLLPKMKPLLYQNGGPVITVQVENEYGSYFACDFDYLRFLQKRFRHHLGDDVVLFTTDGAHKTFLKCGALQGLYTTVDFGTGSNITDAFLSQRKCEPKGPLINSEFYTGWLDHWGQPHSTIKTEAVASSLYDILARGASVNLYMFIGGTNFAYWNGANSPYAAQPTSYDYDAPLSEAGDLTEKYFALRNIIQKFEKVPEGPIPPSTPKFAYGKVTLEKLKTVGAALDILCPSGPIKSLYPLTFIQVKQHYGFVLYRTTLPQDCSNPAPLSSPLNGVHDRAYVAVDGIPQGVLERNNVITLNITGKAGATLDLLVENMGRVNYGAYINDFKGLVSNLTLSSNILTDWTIFPLDTEDAVRSHLGGWGHRDSGHHDEAWAHNSSNYTLPAFYMGNFSIPSGIPDLPQDTFIQFPGWTKGQVWINGFNLGRYWPARGPQLTLFVPQHILMTSAPNTITVLELEWAPCSSDDPELCAVTFVDRPVIGSSVTYDHPSKPVEKRLMPPPPQKNKDSWLDHV
B6: FBXO45 (protein, UniProt P0C2W1 2-286, looked up)
F-box/SPRY domain-containing …: AAPAPGAGAASGGAGCSGGGAGAGAGSGSGAAGAGGRLPSRVLELVFSYLELSELRSCALVCKHWYRCLHGDENSEVWRSLCARSLAEEALRTDILCNLPSYKAKIRAFQHAFSTNDCSRNVYIKKNGFTLHRNPIAQSTDGARTKIGFSEGRHAWEVWWEGPLGTVAVIGIATKRAPMQCQGYVALLGSDDQSWGWNLVDNNLLHNGEVNGSFPQCNNAPKYQIGERIRVILDMEDKTLAFERGYEFLGVAFRGLPKVCLYPAVSAVYGNTEVTLVYLGKPLDG
B7: PITPNA (protein, UniProt Q00169 2-270, looked up)
Phosphatidylinositol transfer …: VLLKEYRVILPVSVDEYQVGQLYSVAEASKNETGGGEGVEVLVNEPYEKDGEKGQYTHKIYHLQSKVPTFVRMLAPEGALNIHEKAWNAYPYCRTVITNEYMKEDFLIKIETWHKPDLGTQENVHKLEPEAWKHVEAVYIDIADRSQVLSKDYKAEEDPAKFKSIKTGRGPLGPNWKQELVNQKDCPYMCAYKLVTVKFKWWGLQNKVENFIHKQERRLFTNFHRQLFCWLDKWVDLTMDDIRRMEEETKRQLDEMRQKDPVKGMTADD
B8: PNMA2 (protein, UniProt Q9UL42 2-364, looked up)
Paraneoplastic antigen Ma2: ALALLEDWCRIMSVDEQKSLMVTGIPADFEEAEIQEVLQETLKSLGRYRLLGKIFRKQENANAVLLELLEDTDVSAIPSEVQGKGGVWKVIFKTPNQDTEFLERLNLFLEKEGQTVSGMFRALGQEGVSPATVPCISPELLAHLLGQAMAHAPQPLLPMRYRKLRVFSGSAVPAPEEESFEVWLEQATEIVKEWPVTEAEKKRWLAESLRGPALDLMHIVQADNPSISVEECLEAFKQVFGSLESRRTAQVRYLKTYQEEGEKVSAYVLRLETLLRRAVEKRAIPRRIADQVRLEQVMAGATLNQMLWCRLRELKDQGPPPSFLELMKVIREEEEEEASFENESIEEPEERDGYGRWNHEGDD
B9: DOK1 (protein, UniProt Q99704 1-481, looked up)
Docking protein 1: MDGAVMEGPLFLQSQRFGTKRWRKTWAVLYPASPHGVARLEFFDHKGSSSGGGRGSSRRLDCKVIRLAECVSVAPVTVETPPEPGATAFRLDTAQRSHLLAADAPSSAAWVQTLCRNAFPKGSWTLAPTDNPPKLSALEMLENSLYSPTWEGSQFWVTVQRTEAAERCGLHGSYVLRVEAERLTLLTVGAQSQILEPLLSWPYTLLRRYGRDKVMFSFEAGRRCPSGPGTFTFQTAQGNDIFQAVETAIHRQKAQGKAGQGHDVLRADSHEGEVAEGKLPSPPGPQELLDSPPALYAEPLDSLRIAPCPSQDSLYSDPLDSTSAQAGEGVQRKKPLYWDLYEHAQQQLLKAKLTDPKEDPIYDEPEGLAPVPPQGLYDLPREPKDAWWCQARVKEEGYELPYNPATDDYAVPPPRSTKPLLAPKPQGPAFPEPGTATGSGIKSHNSALYSQVQKSGASGSWDCGLSRVGTDKTGVKSEGST
B10: FBXO3 (protein, UniProt Q9UK99 1-471, looked up)
F-box only protein 3: MAAMETETAPLTLESLPTDPLLLILSFLDYRDLINCCYVSRRLSQLSSHDPLWRRHCKKYWLISEEEKTQKNQCWKSLFIDTYSDVGRYIDHYAAIKKAWDDLKKYLEPRCPRMVLSLKEGAREEDLDAVEAQIGCKLPDDYRCSYRIHNGQKLVVPGLLGSMALSNHYRSEDLLDVDTAAGGFQQRQGLKYCLPLTFCIHTGLSQYIAVEAAEGRNKNEVFYQCPDQMARNPAAIDMFIIGATFTDWFTSYVKNVVSGGFPIIRDQIFRYVHDPECVATTGDITVSVSTSFLPELSSVHPPHYFFTYRIRIEMSKDALPEKACQLDSRYWRITNAKGDVEEVQGPGVVGEFPIISPGRVYEYTSCTTFSTTSGYMEGYYTFHFLYFKDKIFNVAIPRFHMACPTFRVSIARLEMGPDEYEEMEEEEEEEEEEDEDDDSADMDESDEDDEEERRRRVFDVPIRRRRCSRLF

In the first test the target is His6-avi-MBP-tagged POLE2. The experiment in a line: Single-point nHU-MS with recombinant His6-avi-MBP-POLE2 bait, Jurkat extract. Format: binding, human. Conditions: from the depletion of one peptide, single quantification; read-out: dissociation constant. The text has this: So far, our study only focused on a few hand-picked NPF motifs and studied them as short synthetic peptides. However, many other proteins may be present in the proteome that could bind to POLE2 and their putative NPF motifs are embedded in their natural structures that can greatly affect their binding properties. To investigate interactions between POLE2 and intact, full length proteins proteome-wide, we used nHU-MS experiments with recombinant His6-avi-MBP-tagged POLE2 as bait and purified His6-avi-MBP as a control. Even though we are aware that this recombinant POLE2 may bind to NPF motifs with a somewhat altered affinity, we assumed that this would affect all NPF motif-mediated interactions equally, allowing an unbiased affinity ranking of all identified partners. Single point nHU measurements were performed at 26 μM POLE2 concentration and the recovered supernatant was measured by label free proteomic MS measurements (Fig. 3A, Supplementary Figs. 8A, 9, Supplementary Data 1).
Single-point nHU experiments with protein baits were carried out nearly identically with two key modifications. First, the resin saturation step was carried out by mixing 50 μl streptavidin resin with 0.5−1 ml 50 μM biotinylated protein solution and the mixture was incubated for 1.5 h at 4 °C with constant agitation. Second, instead of using estimated bait concentrations, we measured it experimentally. An extra aliquot of resin stock was prepared alongside the nHU samples that were identically processed that were used to eluate the immobilized proteins under harsh conditions, in order to experimentally quantify the Cbait by using densitometry of Coomassie stained SDS-PAGE that included a protein calibration series. For this, 50 μl bait-saturated resin aliquots were mixed with 200 μl 4x Laemmli Sample Buffer (120 mM Tris-HCl pH 7, 8% SDS, 100 mM DTT, 32% glycerol, 0.004% bromphenol blue, 1% β-mercaptoethanol), instead of cell extract. After 15 min incubation at 95 °C, these samples were analyzed by SDS-PAGE using protein calibration standard, made from recombinant MBP. Densitometry was carried out after Coomassie staining on raw Tif images by using Fiji ImageJ 1.53c and experimental bait concentration were determined by adjusting for molecular weight differences between MBP and MBP-POLE2 constructs.
Samples were digested overnight at 37 °C.
For the molecule B1, the Kd stood at 92 µM.

The same test, now with this note: one DONSON peptide, single quantification.
In the case of B1, the depletion entry is reported as “approximately 22%”.

Still in this test, the particulars now being: significant apparent affinity of endogenous prey protein for POLE2 bait; single-point nHU-MS; Figure S11.
Turning to B2, the pKapp_sign is 4.815.
With B3, the pKapp_sign turned out to be 5.695.
For B4, the pKapp_sign turned out to be 4.689.
In the case of B5, the pKapp_sign is recorded as 4.2.
Take B6: the pKapp_sign turned out to be 4.883.
In the case of B7, the pKapp_sign was found to be 4.604.
In the case of B8, the pKapp_sign is 5.251.
On to B9, for which the pKapp_sign is given as 4.232.
For B10, the pKapp_sign worked out at 4.421.
